# Data: the RNAGym collection of RNA variant scans (doi:10.7554/elife.80360)
# B1: CPEB3 Ribozyme (parent)
# chain: GGGGGCCACAGCAGAAGCGUUCACGUCGCGGCCCCUGUCAGAUUCUGGUGAAUCUGCGAAUUCUGCUGU
# Variants of: B1
# Test: self-cleavage, relative activity (ratio to wild type); higher = more cleavage; co-transcriptional
row,Variant,self-cleavage
1,C7U G14U,0.503
2,C7U G14A,0.509
3,A8C U46A,0.981
4,A8C U46C,0.979
5,C7U G48U,0.966
6,C7U G48A,0.987
7,A8C U61G,0.937
8,A8C U61C,0.776
9,A8C G68U,1.02
10,A8C G68C,1
11,A8G C63G,0.164
12,A8G C63U,0.612
13,A8G C63A,0.253
14,A8G A13U,0.0712
15,A8C C24U,0.753
16,A8C C24G,0.488
17,A8C A59G,1
18,A8C A59U,0.821
19,A8C A42U,0.918
20,A8C A42G,0.939
21,A8G C45U,0.8
22,A8G C45A,0.8
23,A8C C66U,1.02
24,A8C C66G,0.871

row,Variant,self-cleavage
1,C7U C34A,0.521
2,A8C A40G,0.958
3,A8C A40U,0.868
4,C7U C63A,0.577
5,C7U C63U,0.948
6,A8G C66G,0.294
7,A8G C66A,0.249
8,A8G C66U,0.5
9,A8C A52C,0.941
10,A8C A52G,0.974
11,A8C U20C,0.166
12,A8C U20A,0.114
13,A8G C29U,0.761
14,A8G C29A,0.647
15,A8G C29G,0.496
16,A8G A60U,0.25
17,A8G A60G,0.393
18,A8G C18G,0.0214
19,A8G C18U,0.207
20,A8G C18A,0.12
21,A8C G56A,0.999
22,A8C G56C,0.83
23,A8C A10G,0.941
24,A8C A10C,0.975

row,Variant,self-cleavage
1,A8C A10U,0.966
2,A8G A51C,0.706
3,A8G C22U,0.074
4,A8G C22A,0.136
5,A8G C22G,0.0752
6,C7U G25A,0.144
7,C7U G25C,0.0703
8,A8G G56C,0.233
9,A8G G56U,0.446
10,A8G G56A,0.562
11,A8G C57A,0.126
12,A8G C57G,0.203
13,A8C G47A,1.02
14,C7U U46C,0.973
15,A8C A23C,0.907
16,A8C A23U,1.01
17,A8C A23G,0.997
18,C7U C18U,0.702
19,C7U C18A,0.165
20,C7U U26C,1.01
21,A8C C9G,0.922
22,A8C C9U,1.01
23,A8C C9A,1.01
24,A8C C29A,0.532

row,Variant,self-cleavage
1,A8G G19U,0.0891
2,A8G G19C,0.161
3,A8G A59C,0.162
4,A8G A59U,0.401
5,A8G A59G,0.897
6,A8C A60U,0.413
7,A8C A60G,0.953
8,A8C A60C,0.382
9,C7U C9G,1.01
10,C7U C9U,1.06
11,C7U C9A,1.05
12,A8G C32A,0.701
13,C7U G65A,0.781
14,C7U G65U,0.612
15,C7U G65C,0.604
16,A8C U44C,0.896
17,A8C U44A,0.944
18,A8C A16G,0.962
19,A8C A16C,0.325
20,A8C A16U,0.843
21,A8C C33A,0.897
22,A8C C33G,0.527
23,A8C C32G,0.227
24,A8C C32U,0.954

row,Variant,self-cleavage
1,A8G U26C,0.325
2,A8G U26G,0.622
3,A8G U26A,0.644
4,A8C G48U,1.02
5,A8C G48C,1.02
6,A8G G28C,0.102
7,A8G G28U,0.137
8,A8G G28A,0.0955
9,A8C U62C,0.841
10,A8C U62A,0.898
11,A8C U62G,0.9
12,A8G C12A,0.175
13,A8G C12G,0.133
14,A8G C12U,0.444
15,A8C G19A,0.189
16,A8G G30U,0.335
17,A8G G30C,0.602
18,A8G G30A,0.861
19,A8C U36A,0.205
20,A8C U36C,0.819
21,A8C U36G,0.192
22,A8G G58C,0.843
23,A8G G14C,0.125
24,A8G G14U,0.0849

row,Variant,self-cleavage
1,A8G G14A,0.13
2,A8G G37C,0.123
3,A8C G65U,0.676
4,A8C G65A,0.928
5,C7U G28C,0.197
6,C7U G28U,0.146
7,A8C C35G,0.421
8,A8C C35U,0.976
9,A8C G14A,0.669
10,A8C G14C,0.528
11,A8C C12U,0.981
12,A8C C12G,0.798
13,A8C A15C,0.726
14,A8C A15U,0.873
15,C7U G68A,0.971
16,C7U G68C,0.673
17,C7U G41A,0.748
18,C7U G41U,0.692
19,A8G A15C,0.0691
20,A8G A15U,0.144
21,C7U U55A,0.914
22,C7U G31U,0.365
23,C7U G31C,0.222
24,C7U C39A,0.686

row,Variant,self-cleavage
1,C7U C39G,0.911
2,C7U C39U,0.803
3,A8G U43A,0.401
4,A8G U43G,0.398
5,A8G G68C,0.851
6,A8G G68A,0.912
7,A8G G68U,0.841
8,C7U U38C,0.819
9,C7U U38A,0.774
10,C7U U38G,0.193
11,A8G U36A,0.135
12,C7U C45U,0.892
13,C7U C45G,1.02
14,C7U C45A,0.919
15,C7U G58A,0.928
16,C7U G58C,0.873
17,C7U U69C,1.06
18,C7U U69G,1.03
19,C7U U69A,1.02
20,A8G G47U,0.92
21,A8G G47C,0.945
22,A8G U21C,0.584
23,A8G C27A,0.0861
24,A8G C27U,0.0734

row,Variant,self-cleavage
1,A8C C57G,0.446
2,A8C C57A,0.352
3,A8C C57U,0.357
4,C7U C33G,0.245
5,C7U C33A,0.656
6,C7U C33U,0.939
7,A8C A13C,0.927
8,C7U G37U,0.214
9,A8G G41C,0.304
10,A8G G41A,0.222
11,A8G G41U,0.254
12,A8C G17C,0.165
13,A8C G17A,0.269
14,A8C G17U,0.444
15,A8C G37U,0.257
16,A8C G37A,0.207
17,A8G U20G,0.0536
18,A8G U20C,0.09
19,A8C G41A,0.89
20,A8C G41U,0.78
21,A8G C54U,0.805
22,A8G C54G,0.343
23,A8G C54A,0.331
24,A8C U55A,0.969

row,Variant,self-cleavage
1,A8C U55G,0.851
2,A8G A52U,0.803
3,A8G A52C,0.768
4,A8G A52G,0.902
5,C7U C24A,0.499
6,C7U C32A,0.436
7,C7U C32G,0.148
8,C7U G19C,0.155
9,C7U G19U,0.247
10,C7U G19A,0.113
11,C7U U21A,0.967
12,C7U U21G,0.34
13,A8C C18U,0.88
14,A8C C18G,0.186
15,A8G,0.929
16,A8C,0.999
17,A8G G50C,0.791
18,A8C A51U,1.01
19,A8G C35G,0.341
20,A8G C35A,0.217
21,A8C U53G,0.89
22,A8C U53C,0.902
23,A8C U53A,0.919
24,A8C C34U,0.972

row,Variant,self-cleavage
1,A8C C34A,0.834
2,A8C C34G,0.859
3,C7U U64A,0.908
4,C7U U64C,0.794
5,A8G A42U,0.622
6,A8G A42C,0.59
7,A8G A42G,0.536
8,C7U C66G,0.898
9,C7U G47A,0.954
10,C7U G47C,0.917
11,A8G C34G,0.665
12,A8C C22G,0.19
13,A8C C22A,0.163
14,A8C C22U,0.22
15,A8C C45A,1.01
16,A8C C45U,1.04
17,C7U U36A,0.194
18,C7U U36C,0.806
19,C7U U36G,0.166
20,A8G A10U,0.69
21,A8C G25C,0.113
22,A8C G25A,0.148
23,C7U C27U,0.247
24,C7U C27G,0.159

row,Variant,self-cleavage
1,C7U C27A,0.289
2,A8G U38C,0.696
3,C7U U43A,0.828
4,C7U U43C,0.967
5,A8C C39G,0.927
6,A8C C39A,0.848
7,A8C C39U,0.947
8,A8G G48U,0.943
9,A8G G48A,0.939
10,C7U C57A,0.35
11,C7U C57U,0.305
12,A8G G31U,0.649
13,A8G G31A,0.865
14,A8C G30C,0.758
15,A8C G30A,0.951
16,A8C G30U,0.492
17,A8C G58A,0.944
18,A8C G11A,0.923
19,A8C G11U,0.768
20,A8C G11C,0.779
21,A8G G11U,0.189
22,A8G G11C,0.0914
23,A8G G11A,0.26
24,A8G C24G,0.15

row,Variant,self-cleavage
1,A8G C24U,0.174
2,A8G C24A,0.446
3,A8C U67A,1.04
4,C7U U61A,0.805
5,C7U U61C,0.492
6,C7U C22A,0.103
7,C7U C22G,0.117
8,A8G C9U,0.954
9,A8G C9G,0.915
10,C7U U62G,0.595
11,C7U U62C,0.725
12,C7U U62A,0.638
13,C7U G11U,0.715
14,A8G G17U,0.103
15,A8G G17A,0.0671
16,A8G G17C,0.0831
17,C7U U20A,0.112
18,C7U U20C,0.158
19,A8G A16U,0.457
20,A8G A23U,0.858
21,A8G A23G,0.623
22,C7U U44C,0.829
23,C7U C54U,0.967
24,C7U C54A,0.831

row,Variant,self-cleavage
1,A8C C54U,1
2,A8C C54G,0.876
3,A8C C63U,0.972
4,A8C C63A,0.76
5,A8C U69G,1.04
6,A8C U69A,1.01
7,C7U C35U,0.947
8,A8C U64C,0.86
9,A8C U64G,0.892
10,A8C G31U,0.664
11,A8C G31C,0.267
12,A8G G25U,0.1
13,A8G G25C,0.0474
14,A8G G25A,0.113
15,A8G A40G,0.723
16,A8G A40U,0.333
17,A8G A40C,0.103
18,C7U G50U,0.96
19,C7U G50C,0.965
20,C7U G17A,0.175
21,C7U G17U,0.243
22,C7U G17C,0.122
23,A8C U49C,1
24,A8C U49A,1.06

row,Variant,self-cleavage
1,A8C U49G,1.01
2,A8G C33A,0.73
3,A8G C33U,0.833
4,C7U U53A,0.861
5,C7U U53G,0.949
6,C7U U49C,0.854
7,C7U U49G,0.993
8,C7U G56C,0.618
9,C7U G56U,0.849
10,A8C U38C,0.9
11,C7U C12A,0.555
12,A8C G28U,0.154
13,A8C G28C,0.122
14,A8C C27A,0.555
15,A8C C27G,0.112
16,A8G G65A,0.224
17,A8C U21C,0.854
18,A8G C39G,0.537
19,A8G C39A,0.242
20,C7U U67G,0.959
21,C7U U67A,0.985
22,C7U U67C,0.982
